Biological target: human NKp46 on human NKp46-expressing CHO-K1 cells (human) (UniProt O76036)
Assay: flow cytometry on human NKp46-expressing CHO-K1 cells, Alexa Fluor 647 anti-human IgG; upper row of the box

Sequence of human NKp46 on human NKp46-expressing CHO-K1 cells (human) (O76036 22-304): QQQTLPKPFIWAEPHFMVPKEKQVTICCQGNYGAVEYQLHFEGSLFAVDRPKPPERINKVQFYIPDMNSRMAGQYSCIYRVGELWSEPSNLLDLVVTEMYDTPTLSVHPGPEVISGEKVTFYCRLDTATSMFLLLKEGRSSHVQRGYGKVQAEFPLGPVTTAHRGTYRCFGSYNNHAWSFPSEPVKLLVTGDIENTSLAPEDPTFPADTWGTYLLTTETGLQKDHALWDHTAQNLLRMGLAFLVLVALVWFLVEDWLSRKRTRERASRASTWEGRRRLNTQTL

Substance: Human IgG (antibody)
- Geometric Mean : Alexa Fluor 647-H: 206

Source: US20260226158A1
